In patent US20220242962A1 (APTEVO RESEARCH AND DEVELOPMENT, published 2022):
Like-named read-outs stand apart in the source and are kept apart here.

B1: TSC 1005 (other)
chain: EPKSSDKTHTCPPCPAPPVAAPSVFLFPPKPKDTLMISRTPEVTCVVVDVSHEDPEVKFNWYVDGVEVHNAKTKPREEQYNSTYRVVSVLTVLHQDWLNGKEYKCAVSNKALPAPIEKTISKAKGQPREPQVYTLPPSRDELTKNQVSLTCLVKGFYPSDIAVEWESNGQPENNYKTTPPVLDSDGSFFLYSKLTVDKSRWQQGNVFSCSVMHEALHNHYTQKSLSLSPG
notes: IgG1 Fc with E233P, L234V, L235A, deletion of G236, G237A, K322A (EU); also called PVAdel TSC01005
B2: FXX01066 (bispecific antibody)
chain: EVQLVQSGAEVKKPGASVKVSCKASGYTFTSYWMNWVRQAPGQGLEWMGNIYPSGGSTNYAQKFQGRVTMTVDTSTSTVYMELSSLRSEDTAVYYCASFSDGYYAYAMDYWGQGTLVTVSSGGGGSGGGGSGGGGSGGGGSEIVMTQSPATLSLSPGERATLSCRASQSVSSYLNWYQQKPGQAPRLLIYYASRRHTGIPARFSGSGSGTDFTLTISSLQPEDFAVYYCQQGYNLPYTFGQGTKVEIKEPKSSDKTHTCPPCPAPPAAAPSVFLFPPKPKDTLMISRTPEVTCVVVDVSHEDPEVKFNWYVDGVEVHNAKTKPREEQYNSTYRVVSVLTVLHQDWLNGKEYKCAVSNKALPAPIEKTISKAKGQPREPQVYTLPPSRDELTKNQVSLTCLVKGFYPSDIAVEWESNGQPENNYKTTPPVLDSDGSFFLYSKLTVDKSRWQQGNVFSCSVMHEALHNHYTQKSLSLSPGGGGSPSSYVLTQPPSVSVAPGQTARITCGGNNIGSKSVNWFQQKPGQAPVLVVYDDSGRPSGIPERFSGSTSGNTATLTISRVEAGDEADYYCQVWDSSSDHVVFGGGTKLTVLGGGGSGGGGSGGGGSGGGGSQVQLVESGGGVVQPGRSLRLSCAASGFTLSYYGMHWVRQAPGKGLEWVAAISHDGSDKYYADSVKGRFTISRDNSKNTLYLQMNSLRAEDTAVYYCSNDQFDPWGQGTLVTVSSR
notes: ADAPTIR scFv-Fc-scFv, anti-4-1BB (VH-VL) N-terminal, anti-OX40 C-terminal, PAA (del) Fc; also called FX01066

What was measured:
[1] = biological target: T1, Fc gamma receptor RIIA H131 on CHO-K1SV cells (human, UniProt P12318 34-317); experiment: flow cytometry, CHO-K1SV transfectants
T1 construct: whole, on cells
T1 sequence (looked up): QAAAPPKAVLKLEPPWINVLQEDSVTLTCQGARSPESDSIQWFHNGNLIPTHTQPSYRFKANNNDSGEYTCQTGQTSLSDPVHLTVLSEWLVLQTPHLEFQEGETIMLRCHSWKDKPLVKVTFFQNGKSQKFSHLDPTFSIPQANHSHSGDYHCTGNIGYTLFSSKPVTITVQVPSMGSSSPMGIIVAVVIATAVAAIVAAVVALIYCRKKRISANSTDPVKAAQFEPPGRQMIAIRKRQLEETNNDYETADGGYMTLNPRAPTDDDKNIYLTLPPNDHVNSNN
Method: (§1) CHO-K1SV cells stably transfected with a series of FcγR receptors were incubated with each of the […] listed in Table 23. A typical experiment labeled approximately 100,000 cells per well, in 96-well plates, with a range of binding molecule concentrations of 1 to 1000 nM, in 100 μl of PBS buffer with 0.2% BSA and 2 mM EDTA, for 30 minutes on ice, followed by washes and incubation with PE-labeled minimum cross species reactive secondary antibody, goat anti-human IgG Fcγ, F(ab′)2 ([…]) for 30 minutes to 1 hour on ice. Signal from bound molecules was detected using a LSR-II™ flow cytometer (BD Biosciences) and analyzed by FlowJo flow cytometry analysis software. Mean fluorescence intensity (MFI) of bound molecules on cells was determined after exclusion of doublets.

[2] = biological target: T2, Fc gamma receptor RIIA R131 on CHO-K1SV cells (human, UniProt P12318 34-317); experiment: flow cytometry, CHO-K1SV transfectants
T2 construct: whole, on cells
T2 sequence (looked up): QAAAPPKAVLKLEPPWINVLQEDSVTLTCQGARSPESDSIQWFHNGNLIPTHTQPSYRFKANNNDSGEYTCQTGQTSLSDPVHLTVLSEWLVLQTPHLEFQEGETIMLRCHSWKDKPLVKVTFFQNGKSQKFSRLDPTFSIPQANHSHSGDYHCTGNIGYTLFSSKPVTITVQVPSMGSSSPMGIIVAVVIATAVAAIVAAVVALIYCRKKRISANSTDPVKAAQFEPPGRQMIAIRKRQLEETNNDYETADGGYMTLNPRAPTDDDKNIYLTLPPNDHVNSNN
Method: as §1

[3] = biological target: T3, Fc gamma receptor RIIB/C on CHO-K1SV cells (human, UniProt P31994 43-310); experiment: flow cytometry, CHO-K1SV transfectants
T3 construct: whole, on cells
T3 sequence (looked up): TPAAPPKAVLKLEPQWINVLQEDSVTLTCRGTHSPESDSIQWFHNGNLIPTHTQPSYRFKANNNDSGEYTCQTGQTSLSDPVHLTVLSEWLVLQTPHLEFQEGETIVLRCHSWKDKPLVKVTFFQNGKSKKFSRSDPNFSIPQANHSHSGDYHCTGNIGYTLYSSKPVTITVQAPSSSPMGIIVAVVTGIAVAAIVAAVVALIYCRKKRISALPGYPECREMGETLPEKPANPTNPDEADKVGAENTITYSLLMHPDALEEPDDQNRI
Method: as §1

[4] = biological target: T4, Recombinant FcRn/b2M protein (human, UniProt P55899 24-297; P61769 21-119, limits assumed); experiment: SPR pH 6.0, FcRn/b2M immobilized, two-state reaction model
T4 construct: also called hFcRn/b2M; neonatal Fc receptor
T4 sequence (P55899 24-297 limits assumed, chain 1 of 2): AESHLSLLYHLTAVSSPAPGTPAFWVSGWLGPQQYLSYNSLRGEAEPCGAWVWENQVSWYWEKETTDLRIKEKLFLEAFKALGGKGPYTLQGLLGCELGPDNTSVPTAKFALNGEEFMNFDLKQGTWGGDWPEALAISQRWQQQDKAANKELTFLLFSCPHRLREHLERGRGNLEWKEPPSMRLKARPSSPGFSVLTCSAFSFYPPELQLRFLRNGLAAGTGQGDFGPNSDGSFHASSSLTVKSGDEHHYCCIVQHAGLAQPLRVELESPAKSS
T4 sequence (P61769 21-119 limits assumed, chain 2 of 2): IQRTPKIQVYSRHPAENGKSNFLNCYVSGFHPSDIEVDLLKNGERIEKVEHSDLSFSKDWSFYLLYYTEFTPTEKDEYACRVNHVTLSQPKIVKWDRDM
Method: Recombinant FcRn/b2M protein was generated via transient transfection of HEK-293 cells with a bi-cistronic vector containing the genes for both FcRn and […]. The complex was purified using IMAC chromatography and subsequently buffer exchanged into IMAC elution buffer after verifying purity of the IMAC eluate by analytical SEC. hFcRn/b2M at 10 μg/ml in 10 mM sodium acetate (pH 4.5) was immobilized on a CM5 chip by direct amine coupling chemistry to a level of ˜600 RU. A reference flow cell was left blank.
Different concentrations of the Fc variant protein (5-80 nM by 2-fold dilutions in pH 6.0 running buffer) including running buffer as blank were injected in randomized order at 30 μL/min for 180 seconds followed by a 120 second dissociation period.
Sensorgrams obtained from kinetic SPR measurements were analyzed by the double subtraction method. The signal from the reference flow cell was subtracted from the analyte binding response obtained from flow cell with immobilized ligands. Buffer reference was subtracted from analyte binding responses, and the final double-referenced data were analyzed with Biacore T200 Evaluation software (2.0, GE), globally fitting data to derive kinetic parameters. All sensorgrams were fitted using two-state reaction model, as described in Weirong Wang et al, DrugMetab Dispos.: 39(9): 1469-77 (2011).

Full-length Human OX40 [5] = biological target: T5, Full-length Human OX40 (human, UniProt P43489 29-277); experiment: flow cytometry, CHO cells expressing human OX40
T5 construct: also called OXF001; human OX40/CHO
T5 sequence: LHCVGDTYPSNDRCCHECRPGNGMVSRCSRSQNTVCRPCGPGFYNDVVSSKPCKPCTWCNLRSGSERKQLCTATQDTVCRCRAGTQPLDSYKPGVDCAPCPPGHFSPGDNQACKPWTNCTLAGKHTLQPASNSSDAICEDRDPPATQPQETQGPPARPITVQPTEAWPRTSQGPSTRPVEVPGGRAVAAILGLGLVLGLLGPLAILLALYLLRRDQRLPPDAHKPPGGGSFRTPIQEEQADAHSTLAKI

Full-length Human OX40 [6] = biological target: T5, Full-length Human OX40; experiment: flow cytometry, CHO cells expressing human OX40; remark: listed apart in the source

Binder	binding result [1]	binding result [2]	binding result [3]	Kd [4] [nM]	EC50 (Full-length Human OX40 [5]) [nM]	Max MFI (Full-length Human OX40 [5]) [MFI]	EC50 (Full-length Human OX40 [6]) [nM]
B1	no binding (tested: 1 to 1000 nM)	no binding (tested: 1 to 1000 nM)	no binding (tested: 1 to 1000 nM)	20	–	–	–
B2	–	–	–	–	1.5	8620	0.57
